Results from patent publication US20170183710.

Legend:
[1] = target: T1, Anaplastic Lymphoma kinase Artificial Substrate peptide-A (ALAStide-A)
T1 chain: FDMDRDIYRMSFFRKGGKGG

[2] = target: T2, Anaplastic Lymphoma kinase Artificial Substrate peptide-B (ALAStide-B)
T2 chain: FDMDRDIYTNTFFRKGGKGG

[3] = target: T3, YFF peptide
T3 chain: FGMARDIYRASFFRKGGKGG

Protein	phosphorylation by kinase in vitro, ELISA [1]	phosphorylation by kinase in vitro, ELISA [2]	phosphorylation by kinase in vitro, ELISA [3]	phosphorylation by ALK kinase in vitro, ELISA [1]	phosphorylation by ALK kinase in vitro, ELISA [2]	phosphorylation by ALK kinase in vitro, ELISA [3]
Csk (protein) MSAIQAAWPSGTECIAKYNFHGTAEQDLPFCKGDVLTIVAVTKDPNWYKAKNKVGREGIIPANYVQKREGVKAGTKLSLMPWFHGKITREQAERLLYPPETGLFLVRESTNYPGDYTLCVSCDGKVEHYRIMYHASKLSIDEEVYFENLMQLVEHYTSDADGLCTRLIKPKVMEGTVAAQDEFYRSGWALNMKELKLLQTIGKGEFGDVMLGDYRGNKVAVKCIKNDATAQAFLAEASVMTQLRHSNLVQLLGVIVEEKGGLYIVTEYMAKGSLVDYLRSRGRSVLGGDCLLKFSLDVCEAMEYLEGNNFVHRDLAARNVLVSEDNVAKVSDFGLTKEASSTQDTGKLPVKWTAPEALREKKFSTKSDVWSFGILLWEIYSFGRVPYPRIPLKDVVPRVEKGYKMDAPDGCPPAVYEVMKNCWHLDAAMRPSFLQLREQLEHIKTHELHL	The ALK-specific biosensors are not phosphorylated by other representative cellular kinases	The ALK-specific biosensors are not phosphorylated by other representative cellular kinases	shows the lack of affinity of these the two ALK-specific biosensors and YFF peptide by Lyn, Abl, and Csk	–	–	–
Lyn (protein) MGCIKSKGKDSLSDDGVDLKTQPVRNTERTIYVRDPTSNKQQRPVPESQLLPGQRFQTKDPEEQGDIVVALYPYDGIHPDDLSFKKGEKMKVLEEHGEWWKAKSLLTKKEGFIPSNYVAKLNTLETEEWFFKDITRKDAERQLLAPGNSAGAFLIRESETLKGSFSLSVRDFDPVHGDVIKHYKIRSLDNGGYYISPRITFPCISDMIKHYQKQADGLCRRLEKACISPKPQKPWDKDAWEIPRESIKLVKRLGAGQFGEVWMGYYNNSTKVAVKTLKPGTMSVQAFLEEANLMKTLQHDKLVRLYAVVTREEPIYIITEYMAKGSLLDFLKSDEGGKVLLPKLIDFSAQIAEGMAYIERKNYIHRDLRAANVLVSESLMCKIADFGLARVIEDNEYTAREGAKFPIKWTAPEAINFGCFTIKSDVWSFGILLYEIVTYGKIPYPGRTNADVMTALSQGYRMPRVENCPDELYDIMKMCWKEKAEERPTFDYLQSVLDDFYTATEGQYQQQP	The ALK-specific biosensors are not phosphorylated by other representative cellular kinases	The ALK-specific biosensors are not phosphorylated by other representative cellular kinases	shows the lack of affinity of these the two ALK-specific biosensors and YFF peptide by Lyn, Abl, and Csk	–	–	–
Anaplastic lymphoma kinase (ALK) (protein) VYRRKHQELQAMQMELQSPEYKLSKLRTSTIMTDYNPNYCFAGKTSSISDLKEVPRKNITLIRGLGHGAFGEVYEGQVSGMPNDPSPLQVAVKTLPEVCSEQDELDFLMEALIISKFNHQNIVRCIGVSLQSLPRFILLELMAGGDLKSFLRETRPRPSQPSSLAMLDLLHVARDIACGCQYLEENHFIHRDIAARNCLLTCPGPGRVAKIGDFGMARDIYRASYYRKGGCAMLPVKWMPPEAFMEGIFTSKTDTWSFGVLLWEIFSLGYMPYPSKSNQEVLEFVTSGGRMDPPKNCPGPVYRIMTQCWQHQPEDRPNFAIILERIEYCTQDPDVINTALPIEYGPLVEEEEKVPVRPKDPEGVPPLLVSQQAKREEERSPAAPPPLPTTSSGKAAKKPTAAEISVRVPRGPAVEGGHVNMAFSQSNPPSELHKVHGSRNKPTSLWNPTYGSWFTEKPTKKNNPIAKKEPHDRGNLGLEGSCTVPPNVATGRLPGASLLLEPSSLTANMKEVPLFRLRHFPCGNVNYGYQQQGLPLEAATAPGAGHYEDTILKSKNSMNQPGP	–	–	–	ALAStide-A has higher phosphorylation activity than YFF and ALAStide-B	ALAStide-B has comparable phosphorylation level with YFF peptide	YFF peptide is used as a reference to compare the phosphorylation activity of ALAStide-A and ALAStide-B
